Results as given in patent US20150239954.

Biological target: T1, E(Edans)-AAHisAAK-(Dabsyl)-NH2 (not fully specified)
T1 chain: AAHAAK

B1: aspergillopepsin II (An01g00530) (protein)
chain: EDYSSNWAGAVLIGDGYTKVTGEFTVPSVSAGSSSSSGYGGGYGYYKNKRQSEEYCASAWVGIDGDTCETAILQTGVDFCYEDGQTSYDAWYEWYPDYAYDFNDITISEGDTIKVTVEATSKSSGSATVENLTTGQSVTHTFSGNVEGDLCETNAEWIVEDFESGDSLVAFADFGSVTFTNAEATSDGSTVGPSDATVMDIEQDGTVLTETSVSGDSVTVTYV
- enzyme activity in relative fluorescent units (rfu) per minute per mg of protein; cleavage of FRET peptide substrates at pH 4: yields the highest rfu value for aspergillopepsin II
